Measured values published in patent US9994881B2, “Functionalized carboxylic acids and alcohols by reverse fatty acid oxidation in engineered microbes” (William Marsh Rice University, priority 2011, dated 2018).

How the values were obtained:
[1] = substrate: CC(=O)CC(=O)SCCNC(=O)CCNC(=O)[C@H](O)C(C)(C)COP(=O)(O)OP(=O)(O)OC[C@H]1O[C@@H](n2cnc3c(N)ncnc32)[C@H](O)[C@@H]1OP(=O)(O)O; assay: 3-Hydroxyacyl-CoA (β-hydroxybutyryl-CoA) dehydrogenase kinetics (oxidation of NADH at 340 nm); assay type: biochemical, Escherichia coli; conditions: other: NADH dependent reduction, pH 7.5, 0.2 mM NADH, 25° C.
Excerpt: (§1) For enzyme characterization, E. coli fadA and fadB genes were cloned from MG1655 genomic DNA into the pUCBB-ntH6 vector^43 to yield a constitutively expressed gene with a n-terminal 6 His-tag that can be cleaved by Thrombin. fadA was amplified as two halves with the primers fadANdeI5p:fadAmidrev (1st half) and fadAmidfor:fadANotI3p (2nd half) (Supplementary Table S3).
(§2) fadB was amplified in three parts with fadBNdeI5p:fadBmid1rev (1st part), fadBmid1for:fadBmid2rev (2nd part), and fadBmid2for:fadBNotI3p (3rd part) (Supplementary Table S3). fadA and fadB PCR products sections were combined by overlap extension PCR to yield the whole genes, which were subsequently digested with NdeI and NotI restriction enzymes and ligated into pUCBB-ntH6 that was previously digested with NdeI and NotI to yield pUCBB-ntH6-FadA and pUCBB-ntH6-FadB.
(§3) Cultures for enzymatic assays were grown overnight in 100 mL of LB media at 37° C. in 250 mL baffled flasks (Wheaton Industries, Inc., Millville, N.J.) in E. coli BL21 (DE3) cells induced with either 1 mM IPTG (pCA24N, pTrcHis2A) or 1 mM Arabinose (pUCBB-pBAD) at an OD600˜0.6, or expressed constitutively (pUCBB-ntH6). Reactions were monitored on either a Synergy HT plate reader (BioTek Instruments, Inc., Winooski, Vt.) at 25° C. (for reactions monitored at 300 nm or higher) or in a Biomate 5 Spectrophotometer (Thermo Scientific, Waltham, Mass.) for reactions at 263 nm. […]
(§4) For kinetic characterization, his-tagged proteins of AtoB, FadA, FadB, caHBD, egTER were purified from the B-PER supernatant fractions using Talon Metal Affinity Resin (Clontech Laboratories, Inc., Mountain View, Calif.) using gravity purification. […] Enzyme concentration was established by measuring the absorbance at […] and extinction coefficients predicted for each enzyme by the ProtParam program (web.expasy.org/protparam/).
(§5) For kinetic characterization, an appropriate amount of enzyme was established by checking linear range near predicted KM values. Then, the rates were measured for a range of substrates in order to establish kcat and KM. […]

[2] = substrate: C/C=C/C(=O)SCCNC(=O)CCNC(=O)[C@H](O)C(C)(C)COP(=O)(O)OP(=O)(O)OC[C@H]1O[C@@H](n2cnc3c(N)ncnc32)[C@H](O)[C@@H]1OP(=O)(O)O; assay: Crotonyl-CoA reductase kinetics (loss of NADH absorbance); assay type: biochemical, Euglena gracilis; conditions: other: NADH as co-factor, 0.2 mM NADH, pH 7.5, 25° C.
Excerpt: For AtoB and thioesterase characterization assays, the pCA24N-gene (-gfp) plasmids from the ASKA collection^44 were used. For expression of E. gracilis TER for kinetic characterization, the egTER gene was cloned into pTrcHis2A using the In-Fusion protocol (Clontech Laboratories, Inc., Mountain View, Calif.) following PCR amplification from the aforementioned codon-optimized egTER containing plasmid with the primer pair of F1pTH6hisEgter and R1pTH6hisEgter (Supplementary Table S3).
as §3, §4
For kinetic characterization, an appropriate amount of enzyme was established by checking linear range near predicted KM values. Then, the rates were measured for a range of substrates in order to establish kcat and KM. In the cases of FadB for the crotonase reaction and FadA in the “forward” thiolase reaction coupled with HBD, substrate saturation could not be established, as such, the kcat/KM for the reaction was determined by dividing the linear slope of Velocity vs. [Substrate] by the amount of enzyme used in the assays. […]

[3] = substrate: CC(=O)SCCNC(=O)CCNC(=O)[C@H](O)C(C)(C)COP(=O)(O)OP(=O)(O)OC[C@H]1O[C@@H](n2cnc3c(N)ncnc32)[C@H](O)[C@@H]1OP(=O)(O)O; assay: purified protein, by the assay type; conditions: 25° C.
[4] = substrate: CC(=O)CC(=O)SCCNC(=O)CCNC(=O)[C@H](O)C(C)(C)COP(=O)(O)OP(=O)(O)OC[C@H]1O[C@@H](n2cnc3c(N)ncnc32)[C@H](O)[C@@H]1OP(=O)(O)O; assay: purified protein, by the assay type; conditions: 25° C.
[5] = substrate: C/C=C/C(=O)SCCNC(=O)CCNC(=O)[C@H](O)C(C)(C)COP(=O)(O)OP(=O)(O)OC[C@H]1O[C@@H](n2cnc3c(N)ncnc32)[C@H](O)[C@@H]1OP(=O)(O)O; assay: purified protein, by the assay type; conditions: other: pH 7.5, 200 mM KCl, DTNB, 25° C.
Method: (§6) Cells were lysed using Bacterial Protein Extraction Reagent (B-PER) (Thermo Scientific, Waltham, Mass.) as per the prescribed protocol in order to obtain the supernatant containing the active enzymes.
(§7) For kinetic characterization, an appropriate amount of enzyme was established by checking linear range near predicted KM values. Then, the rates were measured for a range of substrates in order to establish kcat and KM. In the cases of FadB for the crotonase reaction and FadA in the “forward” thiolase reaction coupled with HBD, substrate saturation could not be established, as such, the kcat/KM for the reaction was determined by dividing the linear slope of Velocity vs. [Substrate] by the amount of enzyme used in the assays. For reactions that could be saturated, Velocity vs. [Substrate] was fitted by the EnzKIN Matlab module (mathworks.com/matlabcentral/fileexchange/26653) to establish Vmax and KM.
(§8) Thioesterase activity was monitored by following the production of TNB at 412 nm (ε=4.3 mM^−1 cm^−1)^30. Reactions were carried out in the presence of 100 mM Tris pH 7.5, 200 mM KCl, 25 mM DTNB and 200 μM of the ‘-CoA’ substrate in a volume of 200 μL at 25° C.

[6] = substrate: CCCC(=O)SCCNC(=O)CCNC(=O)[C@H](O)C(C)(C)COP(=O)(O)OP(=O)(O)OC[C@H]1O[C@@H](n2cnc3c(N)ncnc32)[C@H](O)[C@@H]1OP(=O)(O)O; assay: purified protein, by the assay type; conditions: other: pH 7.5, 200 mM KCl, DTNB, 25° C.
Method: as §6, §7, §8

[7] = substrate: CC(O)CC(=O)SCCNC(=O)CCNC(=O)[C@H](O)C(C)(C)COP(=O)(O)OP(=O)(O)OC[C@H]1O[C@@H](n2cnc3c(N)ncnc32)[C@H](O)[C@@H]1OP(=O)(O)O; assay: purified protein, by the assay type; conditions: other: pH 7.5, 200 mM KCl, DTNB, 25° C.
Method: as §6, §7, §8

[8] = substrate: CC(=O)CC(=O)SCCNC(=O)CCNC(=O)[C@H](O)C(C)(C)COP(=O)(O)OP(=O)(O)OC[C@H]1O[C@@H](n2cnc3c(N)ncnc32)[C@H](O)[C@@H]1OP(=O)(O)O; assay: purified protein, by the assay type; assay type: biochemical, Escherichia coli; conditions: other: reverse direction, pH 7.5, 2 mM CoA, 25° C.
Excerpt: as §1, §2, §3, §4, §5

[9] = other: pH 7.5, 200 mM KCl, DTNB
[10] = other: acetyl-CoA condensation, pH 7.5, 0.2 mM NADH
[11] = other: reverse direction, pH 7.5, 2 mM CoA

B1: E. coli FadB (hydroxyacyl-CoA dehydrogenase / enoyl-CoA hydratase, NP_418288.1), wild type, his-tagged (Escherichia coli K-12) (protein)
chain: MLYKGDTLYLDWLEDGIAELVFDAPGSVNKLDTATVASLGEAIGVLEQQSDLKGLLLRSNKAAFIVGADITEFLSLFLVPEEQLSQWLHFANSVFNRLEDLPVPTIAAVNGYALGGGCECVLATDYRLATPDLRIGLPETKLGIMPGFGGSVRMPRMLGADSALEIIAAGKDVGADQALKIGLVDGVVKAEKLVEGAKAVLRQAINGDLDWKAKRQPKLEPLKLSKIEATMSFTIAKGMVAQTAGKHYPAPITAVKTIEAAARFGREEALNLENKSFVPLAHTNEARALVGIFLNDQYVKGKAKKLTKDVETPKQAAVLGAGIMGGGIAYQSAWKGVPVVMKDINDKSLTLGMTEAAKLLNKQLERGKIDGLKLAGVISTIHPTLDYAGFDRVDIVVEAVVENPKVKKAVLAETEQKVRQDTVLASNTSTIPISELANALERPENFCGMHFFNPVHRMPLVEIIRGEKSSDETIAKVVAWASKMGKTPIVVNDCPGFFVNRVLFPYFAGFSQLLRDGADFRKIDKVMEKQFGWPMGPAYLLDVVGIDTAHHAQAVMAAGFPQRMQKDYRDAIDALFDANRFGQKNGLGFWRYKEDSKGKPKKEEDAAVEDLLAEVSQPKRDFSEEEIIARMMIPMVNEVVRCLEEGIIATPAEADMALVYGLGFPPFHGGAFRWLDTLGSAKYLDMAQQYQHLGPLYEVPEGLRNKARHNEPYYPPVEPARPVGDLKTA
notes: assayed alone without FadA
Q: How did the Km [1] turn out when B1 was run?
A: The Km was 390.0 ± 19.2 µM.

Q: And the kcat [1]?
A: Its kcat is 25.9 ± 1.2 s⁻¹.

Q: What about the kcat/Km [1] of the same protein?
A: Its kcat/Km is 66500 M⁻¹ s⁻¹.

B2: Euglena gracilis trans-2-enoyl-CoA reductase egTER (AAW66853.1), his-tagged (Euglena gracilis) (protein)
chain: VPQMAEGFSGEATSAWAAAGPQWAAPLVAAASSALALWWWAARRSVRRPLAALAELPTAVTHLAPPMAMFTTTAKVIQPKIRGFICTTTHPIGCEKRVQEEIAYARAHPPTSPGPKRVLVIGCSTGYGLSTRITAAFGYQAATLGVFLAGPPTKGRPAAAGWYNTVAFEKAALEAGLYARSLNGDAFDSTTKARTVEAIKRDLGTVDLVVYSIAAPKRTDPATGVLHKACLKPIGATYTNRTVNTDKAEVTDVSIEPASPEEIADTVKVMGGEDWELWIQALSEAGVLAEGAKTVAYSYIGPEMTWPVYWSGTIGEAKKDVEKAAKRITQQYGCPAYPVVAKALVTQASSAIPVVPLYICLLYRVMKEKGTHEGCIEQMVRLLTTKLYPENGAPIVDEAGRVRVDDWEMAEDVQQAVKDLWSQVSTANLKDISDFAGYQTEFLRLFGFGIDGVDYDQPVDVEADLPSAAQQ
Q: What does the source list for B2?
A: Km [2]: 98.5 ± 7.7 µM; kcat [2]: 1.14 ± 0.08 s⁻¹; kcat/Km [2]: 11600 M⁻¹ s⁻¹

B3: E. coli YciA (acyl-CoA thioesterase, NP_415769.1), wild type (Escherichia coli K-12) (protein)
chain: MSTTHNVPQGDLVLRTLAMPADTNANGDIFGGWLMSQMDIGGAILAKEIAHGRVVTVRVEGMTFLRPVAVGDVVCCYARCVQKGTTSVSINIEVWVKKVASEPIGQRYKATEALFKYVAVDPEGKPRALPVE
Q: Which Km [3, 9] does the source give for B3 here?
A: The Km was 42.7 ± 1.2 µM.

Q: And the Km [4, 9]?
A: Its Km is 875.7 ± 180.9 µM.

Q: What about the kcat [4, 9] of the same protein?
A: Its kcat is 265 ± 54.7 s⁻¹.

Q: What about the kcat/Km [4, 9] of the same protein?
A: Its kcat/Km is 302000 M⁻¹ s⁻¹.

Q: What about the Km [5] of the same protein?
A: The Km was 1348.8 ± 235.5 µM.

Q: What about the Km [6] of the same protein?
A: Its Km is 641.8 ± 91.9 µM.

Q: What about the kcat [6] of the same protein?
A: Its kcat is 558 ± 79.6 s⁻¹.

Q: What about the kcat/Km [6] of the same protein?
A: Its kcat/Km is 869000 M⁻¹ s⁻¹.

Q: And the Km [7]?
A: Its Km is 353.8 ± 38.8 µM.

B4: E. coli AtoB (thiolase), wild type, his-tagged (Escherichia coli K-12) (protein)
chain: MKNCVIVSAVRTAIGSFNGSLASTSAIDLGATVIKAAIERAKIDSQHVDEVIMGNVLQAGLGQNPARQALLKSGLAETVCGFTVNKVCGSGLKSVALAAQAIQAGQAQSIVAGGMENMSLAPYLLDAKARSGYRLGDGQVYDVILRDGLMCATHGYHMGITAENVAKEYGITREMQDELALHSQRKAAAAIESGAFTAEIVPVNVVTRKKTFVFSQDEFPKANSTAEALGALRPAFDKAGTVTAGNASGINDGAAALVIMEESAALAAGLTPLARIKSYASGGVPPALMGMGPVPATQKALQLAGLQLADIDLIEANEAFAAQFLAVGKNLGFDSEKVNVNGGAIALGHPIGASGARILVTLLHAMQARDKTLGLATLCIGGGQGIAMVIERLN
Q: Which results are given for B4?
A: Km [3, 10]: 892.0 ± 56.5 µM; kcat [3, 10]: 3.17 s⁻¹; kcat/Km [3, 10]: 3550 M⁻¹ s⁻¹; Km [4, 11]: 68.1 ± 2.56 µM; kcat [4, 11]: 9.23 s⁻¹; kcat/Km [4, 11]: 136000 M⁻¹ s⁻¹

B5: E. coli FadA (3-ketoacyl-CoA thiolase, YP_026272.1), wild type, his-tagged (Escherichia coli K-12) (protein)
chain: MEQVVIVDAIRTPMGRSKGGAFRNVRAEDLSAHLMRSLLARNPALEAAALDDIYWGCVQQTLEQGFNIARNAALLAEVPHSVPAVTVNRLCGSSMQALHDAARMIMTGDAQACLVGGVEHMGHVPMSHGVDFHPGLSRNVAKAAGMMGLTAEMLARMHGISREMQDAFAARSHARAWAATQSAAFKNEIIPTGGHDADGVLKQFNYDEVIRPETTVEALATLRPAFDPVNGMVTAGTSSALSDGAAAMLVMSESRAHELGLKPRARVRSMAVVGCDPSIMGYGPVPASKLALKKAGLSASDIGVFEMNEAFAAQILPCIKDLGLIEQIDEKINLNGGAIALGHPLGCSGARISTTLLNLMERKDVQFGLATMCIGLGQGIATVFERV
notes: assayed alone without FadB
Q: Which results are given for B5?
A: Km [8]: 422.5 ± 57.3 µM; kcat [8]: 0.75 ± 0.09 s⁻¹; kcat/Km [8]: 1770 M⁻¹ s⁻¹
